Experimental findings from patent US20250376511A1 (Sanofi, published 2025) are described below.

Experiment [1] has as its target T1, Human active C1s (Complement Technology) (human, UniProt P09871 16-688).
T1 sequence: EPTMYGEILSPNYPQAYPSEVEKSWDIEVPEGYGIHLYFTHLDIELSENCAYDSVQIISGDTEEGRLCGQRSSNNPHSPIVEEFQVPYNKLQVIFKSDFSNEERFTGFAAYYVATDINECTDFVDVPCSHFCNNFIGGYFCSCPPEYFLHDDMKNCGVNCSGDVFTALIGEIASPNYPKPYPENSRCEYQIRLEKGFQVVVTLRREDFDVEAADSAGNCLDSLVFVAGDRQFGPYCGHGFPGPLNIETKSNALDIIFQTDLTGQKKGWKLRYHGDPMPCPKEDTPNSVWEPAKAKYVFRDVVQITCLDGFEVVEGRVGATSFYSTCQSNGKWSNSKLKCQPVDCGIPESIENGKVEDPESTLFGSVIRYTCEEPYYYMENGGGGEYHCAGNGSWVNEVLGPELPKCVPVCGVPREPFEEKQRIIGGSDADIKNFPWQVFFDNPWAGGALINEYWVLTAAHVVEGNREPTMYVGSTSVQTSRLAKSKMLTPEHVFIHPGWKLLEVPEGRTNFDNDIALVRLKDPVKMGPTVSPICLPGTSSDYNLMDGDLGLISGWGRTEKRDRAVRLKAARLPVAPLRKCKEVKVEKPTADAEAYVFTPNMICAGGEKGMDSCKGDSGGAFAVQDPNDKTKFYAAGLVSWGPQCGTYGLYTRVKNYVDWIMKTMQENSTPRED
The experiment in a line: cell-based or functional assay.

The target of experiment [2] is T2, His-tagged recombinant human TfR (produced in-house) (human, UniProt P02786 89-760).
T2 construct: also called hTfR; transferrin receptor 1
T2 sequence (P02786 89-760 limits assumed): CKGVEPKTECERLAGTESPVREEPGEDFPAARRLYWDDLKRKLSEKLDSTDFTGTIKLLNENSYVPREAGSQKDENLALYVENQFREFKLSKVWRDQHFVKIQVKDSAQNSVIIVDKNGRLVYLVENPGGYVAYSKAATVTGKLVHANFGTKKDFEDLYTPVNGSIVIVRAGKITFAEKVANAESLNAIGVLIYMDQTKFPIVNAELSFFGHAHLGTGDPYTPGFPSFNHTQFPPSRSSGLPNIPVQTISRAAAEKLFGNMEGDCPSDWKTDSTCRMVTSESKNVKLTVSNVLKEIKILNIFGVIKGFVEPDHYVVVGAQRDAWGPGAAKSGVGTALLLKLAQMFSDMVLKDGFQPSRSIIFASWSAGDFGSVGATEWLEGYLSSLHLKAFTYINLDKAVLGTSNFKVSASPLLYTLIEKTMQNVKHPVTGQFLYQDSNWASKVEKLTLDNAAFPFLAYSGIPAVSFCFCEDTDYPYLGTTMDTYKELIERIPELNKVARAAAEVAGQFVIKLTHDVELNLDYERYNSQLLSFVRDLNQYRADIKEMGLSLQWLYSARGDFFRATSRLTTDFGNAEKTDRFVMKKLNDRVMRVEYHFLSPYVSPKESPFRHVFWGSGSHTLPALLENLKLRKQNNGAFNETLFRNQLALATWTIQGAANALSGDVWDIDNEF
The experiment in a line: affinity of bispecific purified from CHO cells (SPR; details not restated).

Experiment [3] deals with T1, Human active C1s (Complement Technology). The description is as above.
A further experiment concerns the target T3, cynomolgus TfR (cynomolgus, UniProt H9EXL1 89-760 (rhesus entry)).
T3 construct: also called Cyno TfR; cTfR
The description is as above.

The next experiment has as its target T4, cynomolgus aC1s (cynomolgus, UniProt A0A2K5VQX9 16-685).
T4 construct: also called Cyno aC1s; caC1s
T4 sequence: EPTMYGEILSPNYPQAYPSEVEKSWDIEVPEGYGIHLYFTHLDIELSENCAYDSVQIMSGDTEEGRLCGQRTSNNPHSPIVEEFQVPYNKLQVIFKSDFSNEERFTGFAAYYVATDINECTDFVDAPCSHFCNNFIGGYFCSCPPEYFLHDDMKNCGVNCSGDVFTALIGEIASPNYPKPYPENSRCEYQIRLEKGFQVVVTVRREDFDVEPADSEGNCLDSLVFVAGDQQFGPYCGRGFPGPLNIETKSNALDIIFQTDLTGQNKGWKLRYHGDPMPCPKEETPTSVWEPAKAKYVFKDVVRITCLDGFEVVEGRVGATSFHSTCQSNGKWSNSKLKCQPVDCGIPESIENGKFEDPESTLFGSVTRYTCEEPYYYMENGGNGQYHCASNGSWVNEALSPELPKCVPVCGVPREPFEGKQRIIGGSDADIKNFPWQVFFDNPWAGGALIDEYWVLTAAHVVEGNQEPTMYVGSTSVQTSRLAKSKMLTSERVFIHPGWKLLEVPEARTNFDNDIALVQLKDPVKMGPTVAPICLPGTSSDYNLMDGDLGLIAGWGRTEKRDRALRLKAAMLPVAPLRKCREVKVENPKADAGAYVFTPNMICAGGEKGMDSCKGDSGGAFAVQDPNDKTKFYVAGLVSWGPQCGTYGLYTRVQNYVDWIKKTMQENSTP
Described as above.

T3 sequence (chain, as listed by the source): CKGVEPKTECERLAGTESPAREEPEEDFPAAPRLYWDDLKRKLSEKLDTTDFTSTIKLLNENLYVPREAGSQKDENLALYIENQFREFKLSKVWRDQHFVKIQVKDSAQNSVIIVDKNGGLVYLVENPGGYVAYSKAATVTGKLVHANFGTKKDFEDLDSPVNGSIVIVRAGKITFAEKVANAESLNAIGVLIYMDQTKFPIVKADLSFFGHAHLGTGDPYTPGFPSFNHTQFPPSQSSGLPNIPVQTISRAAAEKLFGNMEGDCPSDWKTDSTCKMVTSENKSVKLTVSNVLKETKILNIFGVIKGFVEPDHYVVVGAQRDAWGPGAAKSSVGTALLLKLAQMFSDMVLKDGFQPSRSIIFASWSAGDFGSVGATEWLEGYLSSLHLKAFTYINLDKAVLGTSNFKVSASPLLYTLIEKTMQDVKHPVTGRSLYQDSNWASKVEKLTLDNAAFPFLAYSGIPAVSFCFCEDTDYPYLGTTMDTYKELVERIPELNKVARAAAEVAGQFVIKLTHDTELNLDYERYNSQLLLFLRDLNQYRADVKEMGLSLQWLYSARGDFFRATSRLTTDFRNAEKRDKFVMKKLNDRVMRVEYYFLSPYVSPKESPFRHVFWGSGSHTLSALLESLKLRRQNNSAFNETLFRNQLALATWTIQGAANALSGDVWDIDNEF

B1: bispecific anti-aC1s (L4H5)/anti-TfR (531v25.v6) antibody (bispecific antibody, human IgG4 S228P, kappa)
heavy 1: QVQLVQSGAEVKKPGASVKLSCTASGFNIKDDYIHWVKEAPGQGLEWIGRIDPADGHTKYAPKFQVKVTITAATSTSTAYLQLSSLRSEDTAVYYCARYGYGREVFDYWGQGTTVTVSSASTKGPSVFPLAPCSRSTSESTAALGCLVKDYFPEPVTVSWNSGALTSGVHTFPAVLQSSGLYSLSSVVEVPSSSLGTKTYTCNVDHKPSNTKVDERVESDYGPPCPPCPAPEFEGGPSVFLFPPKPKDTLMISRTPEVTCVVVDVSQEDPEVQFNWYVDGVEVHNAKTKPREEQFNSTYRVVSVLTVLHQDWLNGKEYKCKVSNKGLPSSIEKTISKAKGQPREPQVCTLPPSQEEMTKNQVSLSCAVKGFYPSDIAVEWESNGQPENNYKTTPPVLDSDGSFFLVSRLTVDKSRWQEGNVFSCSVLHEALHSRFTQKSLSLSLG
light 1: DIVMTQSPDSLAVSLGERATISCKSSQSVDYEGDSYLNWYQKKPGQPPKLLIYDASNLESGVPDRFSGSGSGTDFTLTISSLQAEDVAVYYCQQSNEDPWTFGQGTKVEIKRTVAAPAVFIFPPSKKQLKSGTASVVCLLKNFYPREAKVQWKVDNALQSGNSQESVTEQDSKDSTYSLSSTLTLSKADYEKHKVYACEVTHQGLSSPVTKSFNRGEC
heavy 2: QVQLVQSGAEVKKPGASVKVSCKASGYTFTRYYLNWVRKAPGQGLEWIGMIDPSVSETHYAQKFQGRATLTVDKSTSTAYMELSSLRSEDTAVYYCSQIRLPYYYAMDSWGQGTTVTVSSASTKGPSVFPLAPCSRSTSESTAALGCLVKDYFPEPVTVSWNSGALTSGVHTFPAVLQSSGLYSLSSVVTVPSSSLGTKTYTCNVDHKPSNTKVDKRVESKYGPPCPPCPAPEFEGGPSVFLFPPKPKDTLMISRTPEVTCVVVDVSQEDPEVQFNWYVDGVEVHNAKTKPREEQFNSTYRVVSVLTVLHQDWLNGKEYKCKVSNKGLPSSIEKTISKAKGQPREPQVYTLPPCQEEMTKNQVSLWCLVKGFYPSDIAVEWESNGQPENNYKTTPPVLDSDGSFFLYSRLTVDKSRWQEGNVFSCSVLHEALHSHYTQKSLSLSLG
light 2: DIQMTQSPSSLSASVGDRVTITCRASQDIESFLNWYQEKPGKAPKLLIYYTSRLQSGVPSRFSGSGSGTDYTLTISSLQPEDFATYYCQQGNTLPRTFGGGTKVEIKRTVAAPSVFIFPPSDEQLKSGTASVVCLLNNFYPREAKVQWKVDNALQSGNSQESVTEQDSKDSTYSLSSTLTLSKADYEKHKVYACEVTHQGLSSPVTKSFNRGEC
notes: Purified from CHO cells; monovalent for aC1s
For orientation: Kd means the free concentration of one partner at which half of the binding sites on the other are occupied at equilibrium, for simple one-to-one binding. On to B1, for which the “IC50, Wieslab Complement Pathway Assay” value in experiment [1] was found to be 1.04 µg/mL. In addition, the “IC90, Wieslab Complement Pathway Assay” value in experiment [1] stood at 7.55 µg/mL. The Kd amounted to 39.3 nM in experiment [2], 2.26 nM in experiment [3], 72.5 nM with cynomolgus TfR and 0.252 nM in the experiment with cynomolgus aC1s.

B2: bispecific anti-aC1s (L2H5)/anti-TfR (531v25.v6) antibody (bispecific antibody, human IgG4 S228P, kappa)
heavy 1: QVQLVQSGAEVKKPGASVKLSCTASGFNIKDDYIHWVKEAPGQGLEWIGRIDPADGHTKYAPKFQVKVTITAATSTSTAYLQLSSLRSEDTAVYYCARYGYGREVFDYWGQGTTVTVSSASTKGPSVFPLAPCSRSTSESTAALGCLVKDYFPEPVTVSWNSGALTSGVHTFPAVLQSSGLYSLSSVVEVPSSSLGTKTYTCNVDHKPSNTKVDERVESDYGPPCPPCPAPEFEGGPSVFLFPPKPKDTLMISRTPEVTCVVVDVSQEDPEVQFNWYVDGVEVHNAKTKPREEQFNSTYRVVSVLTVLHQDWLNGKEYKCKVSNKGLPSSIEKTISKAKGQPREPQVCTLPPSQEEMTKNQVSLSCAVKGFYPSDIAVEWESNGQPENNYKTTPPVLDSDGSFFLVSRLTVDKSRWQEGNVFSCSVLHEALHSRFTQKSLSLSLG
light 1: DIVMTQSPDSLAVSLGERATISCKSSQSVDYEGDSYLNWYQKKPGQPPKLLIYDASNLESGVPDRFSGSGSGTAFTLTISSLQAEDVAVYYCQQSNEDPWTFGQGTKVEIKRTVAAPAVFIFPPSKKQLKSGTASVVCLLKNFYPREAKVQWKVDNALQSGNSQESVTEQDSKDSTYSLSSTLTLSKADYEKHKVYACEVTHQGLSSPVTKSFNRGEC
heavy 2: QVQLVQSGAEVKKPGASVKVSCKASGYTFTRYYLNWVRKAPGQGLEWIGMIDPSVSETHYAQKFQGRATLTVDKSTSTAYMELSSLRSEDTAVYYCSQIRLPYYYAMDSWGQGTTVTVSSASTKGPSVFPLAPCSRSTSESTAALGCLVKDYFPEPVTVSWNSGALTSGVHTFPAVLQSSGLYSLSSVVTVPSSSLGTKTYTCNVDHKPSNTKVDKRVESKYGPPCPPCPAPEFEGGPSVFLFPPKPKDTLMISRTPEVTCVVVDVSQEDPEVQFNWYVDGVEVHNAKTKPREEQFNSTYRVVSVLTVLHQDWLNGKEYKCKVSNKGLPSSIEKTISKAKGQPREPQVYTLPPCQEEMTKNQVSLWCLVKGFYPSDIAVEWESNGQPENNYKTTPPVLDSDGSFFLYSRLTVDKSRWQEGNVFSCSVLHEALHSHYTQKSLSLSLG
light 2: DIQMTQSPSSLSASVGDRVTITCRASQDIESFLNWYQEKPGKAPKLLIYYTSRLQSGVPSRFSGSGSGTDYTLTISSLQPEDFATYYCQQGNTLPRTFGGGTKVEIKRTVAAPSVFIFPPSDEQLKSGTASVVCLLNNFYPREAKVQWKVDNALQSGNSQESVTEQDSKDSTYSLSSTLTLSKADYEKHKVYACEVTHQGLSSPVTKSFNRGEC
notes: as for B1
For the molecule B2, the “IC50, Wieslab Complement Pathway Assay” value in experiment [1] was 1.23 µg/mL. Moreover, the “IC90, Wieslab Complement Pathway Assay” value in experiment [1] amounted to 9.7 µg/mL. Also, the dissociation constant Kd in experiment [2] is 34.3 nM; in experiment [3] it was 2.64 nM; with cynomolgus TfR it was 48.9 nM; with cynomolgus aC1s it was 0.315 nM.

B3: bispecific anti-aC1s (L2)/anti-TfR (531v25.v6) antibody (bispecific antibody, human IgG4 S228P, kappa)
heavy 1: QVQLVQSGAEVKKPGASVKLSCTASGFNIKDDYIHWVKEAPGQGLEWIGRIDPADGHTKYAPKFQVKVTITADTSTSTAYLELSSLRSEDTAVYYCARYGYGREVFDYWGQGTTVTVSSASTKGPSVFPLAPCSRSTSESTAALGCLVKDYFPEPVTVSWNSGALTSGVHTFPAVLQSSGLYSLSSVVEVPSSSLGTKTYTCNVDHKPSNTKVDERVESDYGPPCPPCPAPEFEGGPSVFLFPPKPKDTLMISRTPEVTCVVVDVSQEDPEVQFNWYVDGVEVHNAKTKPREEQFNSTYRVVSVLTVLHQDWLNGKEYKCKVSNKGLPSSIEKTISKAKGQPREPQVCTLPPSQEEMTKNQVSLSCAVKGFYPSDIAVEWESNGQPENNYKTTPPVLDSDGSFFLVSRLTVDKSRWQEGNVFSCSVLHEALHSRFTQKSLSLSLG
light 1: DIVMTQSPDSLAVSLGERATISCKSSQSVDYEGDSYLNWYQKKPGQPPKLLIYDASNLESGVPDRFSGSGSGTAFTLTISSLQAEDVAVYYCQQSNEDPWTFGQGTKVEIKRTVAAPAVFIFPPSKKQLKSGTASVVCLLKNFYPREAKVQWKVDNALQSGNSQESVTEQDSKDSTYSLSSTLTLSKADYEKHKVYACEVTHQGLSSPVTKSFNRGEC
heavy 2: QVQLVQSGAEVKKPGASVKVSCKASGYTFTRYYLNWVRKAPGQGLEWIGMIDPSVSETHYAQKFQGRATLTVDKSTSTAYMELSSLRSEDTAVYYCSQIRLPYYYAMDSWGQGTTVTVSSASTKGPSVFPLAPCSRSTSESTAALGCLVKDYFPEPVTVSWNSGALTSGVHTFPAVLQSSGLYSLSSVVTVPSSSLGTKTYTCNVDHKPSNTKVDKRVESKYGPPCPPCPAPEFEGGPSVFLFPPKPKDTLMISRTPEVTCVVVDVSQEDPEVQFNWYVDGVEVHNAKTKPREEQFNSTYRVVSVLTVLHQDWLNGKEYKCKVSNKGLPSSIEKTISKAKGQPREPQVYTLPPCQEEMTKNQVSLWCLVKGFYPSDIAVEWESNGQPENNYKTTPPVLDSDGSFFLYSRLTVDKSRWQEGNVFSCSVLHEALHSHYTQKSLSLSLG
light 2: DIQMTQSPSSLSASVGDRVTITCRASQDIESFLNWYQEKPGKAPKLLIYYTSRLQSGVPSRFSGSGSGTDYTLTISSLQPEDFATYYCQQGNTLPRTFGGGTKVEIKRTVAAPSVFIFPPSDEQLKSGTASVVCLLNNFYPREAKVQWKVDNALQSGNSQESVTEQDSKDSTYSLSSTLTLSKADYEKHKVYACEVTHQGLSSPVTKSFNRGEC
notes: as for B1
With B3, the “IC50, Wieslab Complement Pathway Assay” value in experiment [1] is 1.37 µg/mL. In addition, in experiment [1], the “IC90, Wieslab Complement Pathway Assay” value came to 10.2 µg/mL. The Kd in experiment [2] was 29.9 nM; in experiment [3], 3.19 nM; in the experiment with cynomolgus TfR, 52.8 nM; with cynomolgus aC1s, 0.243 nM.
